Patent US20250382344A1, “Soluble GLP1/GIP/NPY2 Receptor Triple Agonists” (Boehringer Ingelheim International GmH, priority 2024, published 2025)
*1 amine or outer side, *2 acyl side, *3 side chain or, on linkers, in order; H or OH if unused. Where no end group is shown, it is not given here. Side-chain parts run from the residue outwards. [ ]: non-standard residue; d: D form. The star is where a group is joined. C20 diacid = O=C(O)CCCCCCCCCCCCCCCCCCC(=O)*; C18 diacid = O=C(O)CCCCCCCCCCCCCCCCC(=O)*; γGlu = O=C(O)[C@H](CCC(=O)[*:2])N[*:1]; εLys = N[C@@H](CCCCN[*:1])C(=O)[*:2]; AEEA = NCCOCCOCC(=O)O; Aib = CC(C)(N)C(=O)O

T1: human GIP receptor (human, UniProt P48546 22-466)
T1 sequence (looked up): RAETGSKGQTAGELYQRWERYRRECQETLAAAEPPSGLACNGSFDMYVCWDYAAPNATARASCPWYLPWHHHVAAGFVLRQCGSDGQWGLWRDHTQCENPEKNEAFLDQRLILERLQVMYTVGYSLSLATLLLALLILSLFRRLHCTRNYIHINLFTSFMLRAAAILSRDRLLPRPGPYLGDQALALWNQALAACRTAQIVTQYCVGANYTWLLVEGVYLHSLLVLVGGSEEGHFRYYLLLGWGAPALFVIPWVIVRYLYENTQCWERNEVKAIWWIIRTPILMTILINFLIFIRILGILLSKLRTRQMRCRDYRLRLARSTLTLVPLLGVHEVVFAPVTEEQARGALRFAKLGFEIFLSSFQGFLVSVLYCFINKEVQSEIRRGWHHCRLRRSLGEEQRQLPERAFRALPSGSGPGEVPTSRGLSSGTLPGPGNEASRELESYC

T2: human neuropeptide Y2 receptor (human, UniProt P49146 1-381)
T2 sequence (looked up): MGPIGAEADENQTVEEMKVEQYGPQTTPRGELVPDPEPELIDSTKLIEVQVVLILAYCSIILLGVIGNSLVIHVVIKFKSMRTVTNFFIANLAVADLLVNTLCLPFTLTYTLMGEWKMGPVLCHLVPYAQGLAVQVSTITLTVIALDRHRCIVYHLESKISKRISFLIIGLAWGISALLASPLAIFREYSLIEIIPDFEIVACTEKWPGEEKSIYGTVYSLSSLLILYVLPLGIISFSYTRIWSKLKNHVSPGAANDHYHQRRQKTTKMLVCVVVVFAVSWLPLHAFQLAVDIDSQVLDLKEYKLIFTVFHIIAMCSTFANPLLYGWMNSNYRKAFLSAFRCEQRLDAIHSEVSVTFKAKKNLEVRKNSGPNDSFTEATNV

T3: human GIP receptor (human, UniProt P48546 22-466)
T3 sequence (looked up): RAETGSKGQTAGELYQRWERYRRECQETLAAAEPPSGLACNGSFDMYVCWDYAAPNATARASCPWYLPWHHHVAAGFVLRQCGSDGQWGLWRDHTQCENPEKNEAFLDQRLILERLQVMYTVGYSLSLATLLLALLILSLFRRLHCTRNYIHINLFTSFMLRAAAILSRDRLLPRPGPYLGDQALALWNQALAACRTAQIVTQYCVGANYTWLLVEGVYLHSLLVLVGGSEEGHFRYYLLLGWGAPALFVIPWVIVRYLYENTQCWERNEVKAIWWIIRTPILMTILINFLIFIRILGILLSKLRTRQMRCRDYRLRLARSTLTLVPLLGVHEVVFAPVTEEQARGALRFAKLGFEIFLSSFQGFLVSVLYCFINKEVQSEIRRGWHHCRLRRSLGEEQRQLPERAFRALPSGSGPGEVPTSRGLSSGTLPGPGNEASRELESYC


What was measured:
Assay in all cases: cell-based or functional assay
human GIP receptor [1] = target: T1, human GIP receptor
[2] = target: T2, human neuropeptide Y2 receptor
human GIP receptor [3] = target: T3, human GIP receptor; remark: listed apart in the source

Binder	EC50, CreLuc reporter, 0.5% hP (human GIP receptor [1])	EC50, CreLuc reporter, 0.5% hP [2]	EC50, CreLuc reporter, 100% hP (human GIP receptor [1])	EC50, CreLuc reporter, 100% hP [2]	EC50, CreLuc reporter, 0.5% hP (human GIP receptor [3])	EC50, CreLuc reporter, 100% hP (human GIP receptor [3])
Y[Aib]EGTFTSDYSI[Aib]LEKQAQ[Aib]AFVRHLINK([εLys-γGlu-γGlu-γGlu-γGlu-γGlu-γGlu-γGlu-C20 diacid])[Aib]TRQRY-NH2 [Compound 35]	0.7 nM	22.9 nM				
Y[Aib]EGTFTSDYSI[Aib]LEKQAQ[Aib]EFVRHLINK([εLys-γGlu-γGlu-γGlu-γGlu-γGlu-γGlu-γGlu-C18 diacid])LTRQRY-NH2 [Compound 32]	0.5 nM	17.1 nM	6.5 nM	44.6 nM		
Y[Aib]EGTFTSDLSI[Aib]LEKQAQ[Aib]AFVRHLINK([γGlu-εLys-γGlu-γGlu-γGlu-γGlu-γGlu-C20 diacid])[Aib]TRQRY-NH2 [Compound 60]	0.3 nM		8 nM	124 nM		
Y[Aib]EGTFTSDYSI[Aib]LDKQAQ[Aib]EFVRHLINK([εLys-γGlu-γGlu-γGlu-γGlu-γGlu-C18 diacid])[Aib]TRQRY-NH2 [Compound 113]					0.2 nM	5.5 nM
Y[Aib]EGTFTSDYSI[Aib]LEKQAE[Aib]AFVRHLINK([εLys-εLys-γGlu-γGlu-γGlu-γGlu-γGlu-γGlu-C20 diacid])[Aib]TRQRY-NH2 [Compound 82]			11.7 nM	75.1 nM		
Y[Aib]EGTFTSDYSI[Aib]LEKQAQ[Aib]EFVRHLINK([AEEA-AEEA-γGlu-γGlu-γGlu-γGlu-C18 diacid])[Aib]TRQRY-NH2 [Compound 73]	0.4 nM		5.9 nM	136 nM		
Y[Aib]EGTFTSDYSI[Aib]LDEQAQ[Aib]AFVRHLINK([εLys-γGlu-γGlu-γGlu-γGlu-γGlu-C20 diacid])[Aib]TRQRY-NH2 [Compound 138]					0.5 nM	11.5 nM
YXEGTFTSDLSIXLEKQAQXAFVRHLINKXTRQRY (Aib at 2, 13, 20, 30; Lys29 epsilon-amino: C18DA-gGlu-gGlu-gGlu-gGlu-gGlu-gGlu-eLys; C-terminal amide) [Compound 169]					0.4 nM	
YXEGTFTSDYSIXLELQAQXAFVRHLINKXTRQRY (Aib at 2, 13, 20, 30; Lys29 epsilon-amino acylated with C18DA-gGlu-gGlu-gGlu-gGlu-gGlu-gGlu-eLys; C-terminal amide) [Compound 65]	0.7 nM	65.8 nM	16.8 nM	406 nM		
YXEGTFTSDYSIXLEKQAQXAFVRHLINKXTRQRY (Aib at 2, 13, 20, 30; NMeQ at 33; Lys29 epsilon-amino acylated with C18DA-gGlu-gGlu-gGlu-gGlu-gGlu-gGlu-eLys; C-terminal amide) [Compound 17]		29.4 nM	2 nM			
YXEGTFTSDYSIXLDKQAQXAFIRHLINKXTRQRY (Aib at 2, 13, 20, 30; Lys29 epsilon-amino: C18DA-gGlu-gGlu-gGlu-gGlu-gGlu-gGlu-eLys; C-terminal amide) [Compound 102]					0.1 nM	2.8 nM
YXEGTFTSDYSIXLEKQAQXEFVRHLINKLTRQRY (Aib at 2, 13, 20; Lys29 epsilon-amino acylated with C20DA-gGlu-gGlu-gGlu-gGlu-gGlu-gGlu-eLys; C-terminal amide) [Compound 39]	0.9 nM	10.8 nM	22.9 nM	119 nM		
YXEGTFTSDLSIXLEKQAQXAFVRHLINKXTRQRY (Aib at 2, 13, 20, 30; Lys29 epsilon-amino acylated with C20DA-gGlu-gGlu-gGlu-gGlu-gGlu-AHX-AHX; C-terminal amide) [Compound 1]	0.2 nM	12.6 nM	10.3 nM	127 nM		
YXEGTFTSDYSIXLEKAAQXAFVRHLINKXTRQRY (Aib at 2, 13, 20, 30; Lys29 epsilon-amino: C18DA-gGlu-gGlu-gGlu-gGlu-gGlu-gGlu-eLys; C-terminal amide) [Compound 143]					0.3 nM	
YXEGTFTSDYSIXLDAQAQXAFVRHLINKXTRQRY (Aib at 2, 13, 20, 30; Lys29 epsilon-amino acylated with C18DA-gGlu-gGlu-gGlu-gGlu-gGlu-gGlu-eLys; C-terminal amide) [Compound 55]	0.4 nM	18.3 nM	7 nM	108 nM		
YXEGTFTSDYSIXLEKAAQXAFVRHLINKXTRQRY (Aib at 2, 13, 20, 30; Lys29 epsilon-amino acylated with C20DA-gGlu-gGlu-gGlu-gGlu-gGlu-gGlu-eLys; C-terminal amide) [Compound 4]	0.3 nM	17.7 nM	11.5 nM	194 nM		
